{
  "source": "the Human Domainome abundance scans (Beltran et al. 2025)",
  "parents": {"B1": {"name": "RNA-binding E3 ubiquitin-protein ligase MEX3C, residues 325 to 391; numbered along this chain, Q5U5Q3 (parent)", "chain": "GQTTVQVRVPYRVVGLVVGPKGATIKRIQQQTHTYIVTPSRDKEPVFEVTGMPENVDRAREEIEMHI"}},
  "note": "± gives the uncertainty stated by the source.",
  "data": [
    {"variants_of": "B1", "assay": "abundance fitness (aPCA) (normalised: wild type 0, dead -1); higher = more abundant; growth selection in yeast, the domain comes from the species named", "conditions": "Homo sapiens", "values": [
      {"variant": "GQTTVQVRVPYRVVGLVVGPKGATIKRIQQQTHTYIVTPSRDKEPVFEVTGMPENVDRAREEIFMHI", "note": "[E64F]", "abundance fitness": "-0.029 ± 0.093"},
      {"variant": "GQTTVQVRVPYRVVGLVVGPKGATIKRIQQQTHTYIVTPSRDKEPVFEVTGMPENVDRAREEIDMHI", "note": "[E64D]", "abundance fitness": "-0.015 ± 0.12"},
      {"variant": "GQTTVQVRVPYRVVGLVVGPKGATIKRIQQQTHTYIVTPSRDKEPVFEVTGMPENVDRAREEIWMHI", "note": "[E64W]", "abundance fitness": "-0.179 ± 0.07"},
      {"variant": "GQTTVQVRVPYRVVGLVVGPKGATIKRIQQQTHTYIVTPSRDKEPVFEVTGMPENVDRAREEIMMHI", "note": "[E64M]", "abundance fitness": "-0.006 ± 0.089"},
      {"variant": "GQTTVQVRVPYRVVGLVVGPKGATIKRIQQQTHTYIVTPSRDKEPVFEVTGMPENVDRAREEITMHI", "note": "[E64T]", "abundance fitness": "-0.779 ± 0.42"},
      {"variant": "GQTTVQVRVPYRVVGLVVGPKGATIKRIQQQTHTYIVTPSRDKEPVFEVTGMPENVDRAREEIVMHI", "note": "[E64V]", "abundance fitness": "-0.66 ± 0.11"},
      {"variant": "GQTTVQVRVPYRVVGLVVGPKGATIKRIQQQTHTYIVTPSRDKEPVFEVTGMPENVDRAREEIGMHI", "note": "[E64G]", "abundance fitness": "-0.606 ± 0.065"},
      {"variant": "GQTTVQVRVPYRVVGLVVGPKGATIKRIQQQTHTYIVTPSRDKEPVFEVTGMPENVDRAREEIKMHI", "note": "[E64K]", "abundance fitness": "-0.193 ± 0.14"},
      {"variant": "GQTTVQVRVPYRVVGLVVGPKGATIKRIQQQTHTYIVTPSRDKEPVFEVTGMPENVDRAREEIYMHI", "note": "[E64Y]", "abundance fitness": "-0.271 ± 0.16"},
      {"variant": "GQTTVQVRVPYRVVGLVVGPKGATIKRIQQQTHTYIVTPSRDKEPVFEVTGMPENVDRAREEIHMHI", "note": "[E64H]", "abundance fitness": "-0.222 ± 0.21"},
      {"variant": "GQTTVQVRVPYRVVGLVVGPKGATIKRIQQQTHTYIVTPSRDKEPVFEVTGMPENVDRAREEILMHI", "note": "[E64L]", "abundance fitness": "0.056 ± 0.057"},
      {"variant": "GQTTVQVRVPYRVVGLVVGPKGATIKRIQQQTHTYIVTPSRDKEPVFEVTGMPENVDRAREEICMHI", "note": "[E64C]", "abundance fitness": "-0.309 ± 0.18"},
      {"variant": "GQTTVQVRVPYRVVGLVVGPKGATIKRIQQQTHTYIVTPSRDKEPVFEVTGMPENVDRAREEIPMHI", "note": "[E64P]", "abundance fitness": "-0.435 ± 0.16"},
      {"variant": "GQTTVQVRVPYRVVGLVVGPKGATIKRIQQQTHTYIVTPSRDKEPVFEVTGMPENVDRAREEISMHI", "note": "[E64S]", "abundance fitness": "-0.281 ± 0.081"},
      {"variant": "GQTTVQVRVPYRVVGLVVGPKGATIKRIQQQTHTYIVTPSRDKEPVFEVTGMPENVDRAREEIEMII", "note": "[H66I]", "abundance fitness": "0.404 ± 0.23"},
      {"variant": "GQTTVQVRVPYRVVGLVVGPKGATIKRIQQQTHTYIVTPSRDKEPVFEVTGMPENVDRAREEIEMGI", "note": "[H66G]", "abundance fitness": "-0.465 ± 0.1"},
      {"variant": "GQTTVQVRVPYRVVGLVVGPKGATIKRIQQQTHTYIVTPSRDKEPVFEVTGMPENVDRAREEIEMKI", "note": "[H66K]", "abundance fitness": "-0.039 ± 0.12"},
      {"variant": "GQTTVQVRVPYRVVGLVVGPKGATIKRIQQQTHTYIVTPSRDKEPVFEVTGMPENVDRAREEIEMEI", "note": "[H66E]", "abundance fitness": "-0.143 ± 0.14"},
      {"variant": "GQTTVQVRVPYRVVGLVVGPKGATIKRIQQQTHTYIVTPSRDKEPVFEVTGMPENVDRAREEIEMCI", "note": "[H66C]", "abundance fitness": "0.089 ± 0.099"},
      {"variant": "GQTTVQVRVPYRVVGLVVGPKGATIKRIQQQTHTYIVTPSRDKEPVFEVTGMPENVDRAREEIEMFI", "note": "[H66F]", "abundance fitness": "0.135 ± 0.14"},
      {"variant": "GQTTVQVRVPYRVVGLVVGPKGATIKRIQQQTHTYIVTPSRDKEPVFEVTGMPENVDRAREEIEMDI", "note": "[H66D]", "abundance fitness": "-0.625 ± 0.17"},
      {"variant": "GQTTVQVRVPYRVVGLVVGPKGATIKRIQQQTHTYIVTPSRDKEPVFEVTGMPENVDRAREEIEQHI", "note": "[M65Q]", "abundance fitness": "0.225 ± 0.076"},
      {"variant": "GQTTVQVRVPYRVVGLVVGPKGATIKRIQQQTHTYIVTPSRDKEPVFEVTGMPENVDRAREEIEIHI", "note": "[M65I]", "abundance fitness": "-0.099 ± 0.18"},
      {"variant": "GQTTVQVRVPYRVVGLVVGPKGATIKRIQQQTHTYIVTPSRDKEPVFEVTGMPENVDRAREEIESHI", "note": "[M65S]", "abundance fitness": "0.12 ± 0.058"},
      {"variant": "GQTTVQVRVPYRVVGLVVGPKGATIKRIQQQTHTYIVTPSRDKEPVFEVTGMPENVDRAREEIEWHI", "note": "[M65W]", "abundance fitness": "-0.184 ± 0.074"},
      {"variant": "GQTTVQVRVPYRVVGLVVGPKGATIKRIQQQTHTYIVTPSRDKEPVFEVTGMPENVDRAREEIEYHI", "note": "[M65Y]", "abundance fitness": "0.366 ± 0.11"},
      {"variant": "GQTTVQVRVPYRVVGLVVGPKGATIKRIQQQTHTYIVTPSRDKEPVFEVTGMPENVDRAREEIEVHI", "note": "[M65V]", "abundance fitness": "-0.449 ± 0.067"},
      {"variant": "GQTTVQVRVPYRVVGLVVGPKGATIKRIQQQTHTYIVTPSRDKEPVFEVTGMPENVDRAREEIEHHI", "note": "[M65H]", "abundance fitness": "0.125 ± 0.084"},
      {"variant": "GQTTVQVRVPYRVVGLVVGPKGATIKRIQQQTHTYIVTPSRDKEPVFEVTGMPENVDRAREEIERHI", "note": "[M65R]", "abundance fitness": "0.216 ± 0.05"},
      {"variant": "GQTTVQVRVPYRVVGLVVGPKGATIKRIQQQTHTYIVTPSRDKEPVFEVTGMPENVDRAREEIECHI", "note": "[M65C]", "abundance fitness": "-0.285 ± 0.11"},
      {"variant": "GQTTVQVRVPYRVVGLVVGPKGATIKRIQQQTHTYIVTPSRDKEPVFEVTGMPENVDRAREEIEFHI", "note": "[M65F]", "abundance fitness": "-0.264 ± 0.23"},
      {"variant": "GQTTVQVRVPYRVVGLVVGPKGATIKRIQQQTHTYIVTPSRDKEPVFEVTGMPENVDRAREEIELHI", "note": "[M65L]", "abundance fitness": "-0.114 ± 0.054"},
      {"variant": "GQTTVQVRVPYRVVGLVVGPKGATIKRIQQQTHTYIVTPSRDKEPVFEVTGMPENVDRAREEIEDHI", "note": "[M65D]", "abundance fitness": "-0.223 ± 0.17"},
      {"variant": "GQTTVQVRVPYRVVGLVVGPKGATIKRIQQQTHTYIVTPSRDKEPVFEVTGMPENVDRAREEIEPHI", "note": "[M65P]", "abundance fitness": "-0.699 ± 0.2"},
      {"variant": "GQTTVQVRVPYRVVGLVVGPKGATIKRIQQQTHTYIVTPSRDKEPVFEVTGMPENVDRAREEIEKHI", "note": "[M65K]", "abundance fitness": "0.224 ± 0.06"},
      {"variant": "GQTTVQVRVPYRVVGLVVGPKGATIKRIQQQTHTYIVTPSRDKEPVFEVTGMPENVDRAREEIEGHI", "note": "[M65G]", "abundance fitness": "-0.049 ± 0.049"},
      {"variant": "GQTTVQVRVPYRVVGLVVGPKGATIKRIQQQTHTYIVTPSRDKEPVFEVTGMPENVDRAREEIEAHI", "note": "[M65A]", "abundance fitness": "0.142 ± 0.06"},
      {"variant": "GQTTVQVRVPYRVVGLVVGPKGATIKRIQQQTHTYIVTPSRDKEPVFEVTGMPENVDRAREEIENHI", "note": "[M65N]", "abundance fitness": "0.033 ± 0.18"},
      {"variant": "GQTTVQVRVPYRVVGLVVGPKGATIKRIQQQTHTYIVTPSRDKEPVFEVTGMPENVDRAREEIETHI", "note": "[M65T]", "abundance fitness": "0.004 ± 0.08"},
      {"variant": "GQTTVQVRVPYRVVGLVVGPKGATIKRIQQQTHTYIVTPSRDKEPVFEVTGMPENVDRAREEYEMHI", "note": "[I63Y]", "abundance fitness": "-0.748 ± 0.19"}
    ]}
  ]
}
